Consider 3 molecules from US20230405140A1 (MCSAF INSIDE ONCOLOGY, published 2023).

The target in test [1] is T1, CD56 (UniProt P13591 20-858, limits assumed). Description: cell-based or functional assay.
Test [2] has as its target T1, CD56. As to the kind of experiment: cell-based or functional assay. The source holds these as a separate data set.
Test [3] concerns the target T1, CD56. Description: cell-based or functional assay. The source holds these as a separate data set.
Another test concerns the target T2, HER2 (UniProt P04626 23-1255, limits assumed).
T2 construct: whole, on cells; SK-BR-3 (SKBR3) cells, CD56-negative control line
As to the kind of experiment: immunocytochemistry with peroxidase secondary antibody, SKBR3 cells (HER2-positive, no CD56); '-' = absence of fixation.

B1: MF-m906-MMAE (antibody, human IgG1, kappa)
heavy: not shown
light: DVVMTQSPLSLPVTPGEPASISCRSSQSLLHSNGYNFLDWYLQKPGQSPQLLIYLGSNRASGVPDRFSGSGSGTDFTLKISRVEADDVGVYYCMQSLQTPWTFGHGTKVEIKRTVAAPSVFIFPPSDEQLKSGTASVVCLLNNFYPREAKVQWKVDNALQSGNSQESVTEQDSKDSTYSLSSTLTLSKADYEKHKVYACEVTHQGLSSPVTKSFNRGEC
modifications: MMAE linker-drug (pyridine-caproic-ValCit-PABc-MMAE, compound 8) grafted on interchain cysteines; mean DAR 3.89
In the case of B1, the “IC50, XTT cytotoxicity test, H69 small cell lung carcinoma line” value with CD56 [1] fell in the range of 1 to 2 nM.

B2: MIO-003 (antibody, human IgG1, kappa, N297A)
heavy: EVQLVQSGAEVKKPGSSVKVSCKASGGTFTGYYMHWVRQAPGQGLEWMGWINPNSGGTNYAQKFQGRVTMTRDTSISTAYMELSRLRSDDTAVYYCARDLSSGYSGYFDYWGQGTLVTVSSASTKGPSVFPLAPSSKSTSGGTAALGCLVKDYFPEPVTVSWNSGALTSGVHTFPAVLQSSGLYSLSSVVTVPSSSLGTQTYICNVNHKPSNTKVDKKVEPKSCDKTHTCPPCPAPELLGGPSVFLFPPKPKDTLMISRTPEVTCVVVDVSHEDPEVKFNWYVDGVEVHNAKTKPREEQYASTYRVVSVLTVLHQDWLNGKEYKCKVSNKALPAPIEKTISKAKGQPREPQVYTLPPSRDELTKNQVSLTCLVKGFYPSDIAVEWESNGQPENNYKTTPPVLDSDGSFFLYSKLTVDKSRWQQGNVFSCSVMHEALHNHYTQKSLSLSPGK
light: DVVMTQSPLSLPVTPGEPASISCRSSQSLLHSNGYNFLDWYLQKPGQSPQLLIYLGSNRASGVPDRFSGSGSGTDFTLKISRVEADDVGVYYCMQSLQTPWTFGHGTKVEIKRTVAAPSVFIFPPSDEQLKSGTASVVCLLNNFYPREAKVQWKVDNALQSGNSQESVTEQDSKDSTYSLSSTLTLSKADYEKHKVYACEVTHQGLSSPVTKSFNRGEC
modifications: MMAE linker-drug (pyridine-caproic-ValCit-PABc-MMAE) as in MIO-001; attachment residues not itemised
With B2, in the test with CD56 [2], the “IC50 (pM), XTT assay, PeTa n = 3” value was determined as 14900 pM and the “IC50 (pM), XTT assay, WaGa n = 3” value is 10300 pM. Further, in the test with CD56 [3], the “IC50 (pM), XTT assay, H69 n = 3” value amounted to 1950 pM and the “IC50 (pM), XTT assay, H209 n = 3” value was 22100 pM.

B3: m906 (antibody, human IgG1, kappa)
heavy: not shown
light: DVVMTQSPLSLPVTPGEPASISCRSSQSLLHSNGYNFLDWYLQKPGQSPQLLIYLGSNRASGVPDRFSGSGSGTDFTLKISRVEADDVGVYYCMQSLQTPWTFGHGTKVEIKRTVAAPSVFIFPPSDEQLKSGTASVVCLLNNFYPREAKVQWKVDNALQSGNSQESVTEQDSKDSTYSLSSTLTLSKADYEKHKVYACEVTHQGLSSPVTKSFNRGEC
notes: also called mAb-001; anti-CD56 antibody m906
For B3, in the test with HER2, the binding result is “no binding (tested: 650 ng/mL)”.
